Data: patent publication US20220412989A1, “COMPOSITIONS AND METHODS FOR DETECTING CELLS UNDERGOING FERROPTOSIS USING AN ANTIBODY” (THE TRUSTEES OF COLUMBIA UNIVERSITY IN THE CITY OF NEW YORK, priority 2020, published 2022)

Legend:
[1] = molecular target: T1, TfR1 in mouse liver tissue (Mus musculus, UniProt Q62351); test: Staining of normal mouse liver frozen tissue; details: frozen tissue samples
T1 construct: from tissue; host or cells: normal mouse liver, frozen sections
Method: FIGS. 12A-12B show 3F3 FMA staining in human Huntington's disease brains and mouse tissues. In FIG. 12A, human HD and control brain tissues were fixed in 4% PFA for 24 h, perfused in 30% sucrose for 24 h, and stained with DAPI (nuclei, blue) and 3F3 FMA (red). The expression level of TfR1 is low. There was no difference between HD and control groups. In FIG. 12B, mouse liver tissues and mouse GBM tissues were fixed and stained with DAPI (nuclei, blue) and 3F3 FMA (red). 3F3 FMA was able to recognize mouse TfR1.

[2] = molecular target: T2, transferrin receptor protein 1 (Homo sapiens, UniProt P02786); test: Antigen identification by immunoprecipitation-mass spectrometry; assay type: binding; details: HT-1080 cell lysate
T2 construct: First, we incubated 3F3-FMA with a cell lysate overnight; endogenous in cells; host or cells: HT-1080 (ATCC CRL-7951)
T2 sequence (P02786 whole entry): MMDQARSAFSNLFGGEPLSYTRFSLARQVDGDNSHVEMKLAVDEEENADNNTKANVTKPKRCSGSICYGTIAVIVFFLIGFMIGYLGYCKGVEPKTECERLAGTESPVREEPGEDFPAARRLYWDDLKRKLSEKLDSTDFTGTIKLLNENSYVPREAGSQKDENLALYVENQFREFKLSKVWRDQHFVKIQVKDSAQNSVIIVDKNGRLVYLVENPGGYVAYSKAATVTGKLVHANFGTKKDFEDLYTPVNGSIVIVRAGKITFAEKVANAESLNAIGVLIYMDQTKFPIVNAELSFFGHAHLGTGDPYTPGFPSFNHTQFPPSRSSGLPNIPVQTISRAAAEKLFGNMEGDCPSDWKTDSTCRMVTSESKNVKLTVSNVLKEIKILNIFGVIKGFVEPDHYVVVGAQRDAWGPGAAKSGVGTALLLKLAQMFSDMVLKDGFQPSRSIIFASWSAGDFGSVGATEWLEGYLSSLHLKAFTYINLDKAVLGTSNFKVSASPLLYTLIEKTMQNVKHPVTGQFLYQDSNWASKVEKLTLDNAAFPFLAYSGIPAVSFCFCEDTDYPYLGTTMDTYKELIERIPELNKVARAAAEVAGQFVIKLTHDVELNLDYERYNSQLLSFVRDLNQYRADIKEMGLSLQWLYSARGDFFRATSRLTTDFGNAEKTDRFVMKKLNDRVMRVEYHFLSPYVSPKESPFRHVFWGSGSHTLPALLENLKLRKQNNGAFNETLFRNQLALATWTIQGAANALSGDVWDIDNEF
Method: HT-1080 cells were seeded in DMEM (Corning 10-013-CM) and 10% Hi-FBS with 1% penicillin and streptomycin (PS) with 1% MEM Non-Essential Amino Acids Solution (100×) (Thermo Fisher Scientific 11140-076) 16 h prior to use. DMSO or 1 μM of RSL3 was added and incubated for 4 h. Following treatment, the medium was aspirated from each dish and cells were washed twice with PBS. Cells were lysed with 70 μl lysis buffer (RIPA buffer from ThermoFisher, cat. 89900, 1 mM EDTA, 1 mM PMSF, 1× Halt™ protease inhibitor cocktail from ThermoFisher, cat. 78430 and 1× Halt™ phosphatase inhibitor cocktail from ThermoFisher, cat. 78426). Unlysed cells and debris were pelleted for 15 min at 16,000×g at 4° C. The samples were incubated with 10 μg of 3F3 FMA overnight at 4° C. with shaking. […]
Trypsin digestion was performed overnight at 37° C. […] CID fragmentation was applied with 35% collision energy and resulting fragments were detected using the rapid scan rate in the ion trap. […]
Raw mass spectrometric data were analyzed using MaxQuant v.1.6.1.0 (Cox and Mann, 2008) (MaxQuant, RRID:SCR_014485) and employed Andromeda for database search (Cox et al., 2011) at default settings with a few modifications. […]

T1 sequence (Q62351 whole entry): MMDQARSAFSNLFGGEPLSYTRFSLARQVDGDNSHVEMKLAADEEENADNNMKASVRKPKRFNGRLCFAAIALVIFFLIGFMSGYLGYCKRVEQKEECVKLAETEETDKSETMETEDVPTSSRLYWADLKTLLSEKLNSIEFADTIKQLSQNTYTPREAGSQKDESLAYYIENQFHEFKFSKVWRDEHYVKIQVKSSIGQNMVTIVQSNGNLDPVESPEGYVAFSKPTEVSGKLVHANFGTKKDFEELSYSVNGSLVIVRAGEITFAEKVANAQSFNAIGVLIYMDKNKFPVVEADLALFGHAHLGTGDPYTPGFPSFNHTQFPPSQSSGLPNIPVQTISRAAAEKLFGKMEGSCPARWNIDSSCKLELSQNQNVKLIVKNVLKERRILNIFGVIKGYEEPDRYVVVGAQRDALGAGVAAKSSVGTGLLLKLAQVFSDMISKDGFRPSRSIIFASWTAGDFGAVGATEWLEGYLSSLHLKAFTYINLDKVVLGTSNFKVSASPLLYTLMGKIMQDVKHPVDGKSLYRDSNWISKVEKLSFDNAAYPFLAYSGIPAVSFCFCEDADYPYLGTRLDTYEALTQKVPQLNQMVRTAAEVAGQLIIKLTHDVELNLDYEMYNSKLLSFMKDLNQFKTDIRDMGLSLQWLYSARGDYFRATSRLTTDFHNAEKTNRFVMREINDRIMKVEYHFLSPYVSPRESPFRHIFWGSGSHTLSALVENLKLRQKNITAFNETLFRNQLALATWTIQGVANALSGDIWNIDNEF

staining signal in normal mouse liver [1]: robust signal | amino acid coverage of TfR1 [2]: 53% | confidence identification of transferrin receptor protein 1 as target antigen [2]: 63%
B1: 3F3-FMA: murine monoclonal IgG1 raised against ferroptotic membrane fractions; antigen is human transferrin receptor protein 1 (TfR1) (antibody, V domains shown)
VH: EVLLQQSGTELVRPGALVKLSCKASGFNIQDLYIHWVKQRPEQGLEWIGWIDPETDNTIYDPKFQGKASITADTSSNTAYLQLSSLTSEDTAMYYCSTGLLQWYFDVWGAGTAVTVSS
VL: DIVMTQSPSSLAMSIGQKVTMRCKSSQSLLNSYNQKNCLAWYQQKPGQSPKLLLYFVSTRESGVPDRFIGSGSGTDFTLTISSVQAEDLADYFCQQHYSTPLTFGAGTKLELK
